Results taken from patent US9249224B2 (RINAT NEUROSCIENCE CORP., priority 2011, dated 2016).

Tested on: ALS
Assay: Serum ALS levels in cynomolgus monkeys after a single antibody dose
Format: in vivo, cynomolgus monkey
Details: for serum ALS levels decreased to about: by 96 hours; for serum ALS decrease below control: by 72 hours
Procedure: To determine if GHR antagonist monoclonal antibodies can affect IGF-1, IGFBP-3, and ALS levels in vivo by inhibiting the function of GHR, the effect of humanized anti-human GHR antibody SS1 was tested in cynomolgus monkeys. A dose-response study was conducted to test for changes in IGF-1, IGFBP-3, and ALS levels following a single dose of SS1. Eight naïve female cynomolgus monkeys were injected intravenously with a single dose of SS1 or negative control human IgG2, in 1×PBS 0.01% Tween™ 20. Two monkeys were dosed with 30 mg/kg SS1, two were dosed with 10 mg/kg SS1, two were dosed with 3 mg/kg SS1, and two were dosed with 30 mg/kg negative control human IgG2Δa on Day 1. […] Serum was also taken from the 30 mg/kg SS1 and negative control treated animals at 864 h post-dose.
Serum samples were analyzed for changes in ALS levels compared to baseline using a BioVendor™ Human ALS ELISA kit (cat. #RMEE35R).
Six naïve female cynomolgus monkeys were injected either intravenously or subcutaneously with a single dose of […] or negative control human IgG2Δa in 1×PBS 0.01% Tween™ 20. Two monkeys were dosed with 3 mg/kg SS1 intravenously, two were dosed with 3 mg/kg SS1 subcutaneously, and two were dosed with 3 mg/kg negative control human IgG2Δa subcutaneously on Day 1. Serum samples were taken from all animals at the following timepoints: pre-dose, 24 h, 72 h, 120 h, 168 h, 216 h, 264 h, 312 h, 360 h, 408 h, 456 h and 504 h.

B1: SS1: humanized GHR antagonist antibody; VL SEQ ID NO: 7, VH SEQ ID NO: 8; hIgG2Δa heavy chain SEQ ID NO: 134, light chain SEQ ID NO: 135 (antibody)
heavy: EVQLVESGGGLVKPGGSLRLSCAASGFTFSDAWMDWVRQAPGKGLEWVAEIRSKANYHATYYAESVKGRFTISRDDSKNTLYLQMNSLKTEDTAVYYCTLIRDYWGQGTLVTVSSASTKGPSVFPLAPCSRSTSESTAALGCLVKDYFPEPVTVSWNSGALTSGVHTFPAVLQSSGLYSLSSVVTVPSSNFGTQTYTCNVDHKPSNTKVDKTVERKCCVECPPCPAPPVAGPSVFLFPPKPKDTLMISRTPEVTCVVVDVSHEDPEVQFNWYVDGVEVHNAKTKPREEQFNSTFRVVSVLTVVHQDWLNGKEYKCKVSNKGLPSSIEKTISKTKGQPREPQVYTLPPSREEMTKNQVSLTCLVKGFYPSDIAVEWESNGQPENNYKTTPPMLDSDGSFFLYSKLTVDKSRWQQGNVFSCSVMHEALHNHYTQKSLSLSPGK
light: EIVLTQSPGTLSLSPGERATLSCTATSSVSSSYLNWYQQKPGQAPRLLIYSTSNLASGIPDRFSGSGSGTDFTLTISRLEPEDFAVYYCHQYHRSTPTFGGGTKVEIKRTVAAPSVFIFPPSDEQLKSGTASVVCLLNNFYPREAKVQWKVDNALQSGNSQESVTEQDSKDSTYSLSSTLTLSKADYEKHKVYACEVTHQGLSSPVTKSFNRGEC
modifications: Humanized and/or affinity matured antibody sequence
serum ALS levels (% change from baseline) (Table 12, cynomolgus monkeys, SS1 3 mg/kg IV single dose, 24 h post-injection): −23.0 +/− 4.0% | serum ALS levels (% change from baseline) (Table 12, cynomolgus monkeys, SS1 3 mg/kg IV single dose, 48 h post-injection): −41.7 +/− 3.6% | serum ALS levels (% change from baseline) (Table 12, cynomolgus monkeys, SS1 3 mg/kg IV single dose, 72 h post-injection): −45.4 +/− 0.9% | serum ALS levels (% change from baseline) (Table 12, cynomolgus monkeys, SS1 3 mg/kg IV single dose, 96 h post-injection): −50.7 +/− 2.3% | serum ALS levels (% change from baseline) (Table 12, cynomolgus monkeys, SS1 3 mg/kg IV single dose, 120 h post-injection): −48.0 +/− 0.4% | serum ALS levels (% change from baseline) (Table 12, cynomolgus monkeys, SS1 3 mg/kg IV single dose, 144 h post-injection): −45.5 +/− 8.4% | serum ALS levels (% change from baseline) (Table 12, cynomolgus monkeys, SS1 3 mg/kg IV single dose, 192 h post-injection): −50.7 +/− 8.8% | serum ALS levels (% change from baseline) (Table 12, cynomolgus monkeys, SS1 3 mg/kg IV single dose, 312 h post-injection): −22.0 +/− 8.2% | serum ALS levels (% change from baseline) (Table 12, cynomolgus monkeys, SS1 3 mg/kg IV single dose, 336 h post-injection): −23.7 +/− 6.4% | serum ALS levels (% change from baseline) (Table 12, cynomolgus monkeys, SS1 10 mg/kg IV single dose, 24 h post-injection): 27.3 +/− 32.1% | serum ALS levels (% change from baseline) (Table 12, cynomolgus monkeys, SS1 10 mg/kg IV single dose, 48 h post-injection): −9.4 +/− 23.4% | serum ALS levels (% change from baseline) (Table 12, cynomolgus monkeys, SS1 10 mg/kg IV single dose, 72 h post-injection): −8.0 +/− 35.2% | serum ALS levels (% change from baseline) (Table 12, cynomolgus monkeys, SS1 10 mg/kg IV single dose, 96 h post-injection): −24.1 +/− 23.6% | serum ALS levels (% change from baseline) (Table 12, cynomolgus monkeys, SS1 10 mg/kg IV single dose, 120 h post-injection): −17.5 +/− 30.4% | serum ALS levels (% change from baseline) (Table 12, cynomolgus monkeys, SS1 10 mg/kg IV single dose, 144 h post-injection): −46.5 +/− 1.9% | serum ALS levels (% change from baseline) (Table 12, cynomolgus monkeys, SS1 10 mg/kg IV single dose, 192 h post-injection): −39.4 +/− 3.3% | serum ALS levels (% change from baseline) (Table 12, cynomolgus monkeys, SS1 10 mg/kg IV single dose, 312 h post-injection): −38.7 +/− 4.1% | serum ALS levels (% change from baseline) (Table 12, cynomolgus monkeys, SS1 10 mg/kg IV single dose, 336 h post-injection): −40.4 +/− 0.4% | serum ALS levels (% change from baseline) (Table 12, cynomolgus monkeys, SS1 30 mg/kg IV single dose, 24 h post-injection): 3.9 +/− 4.2% | serum ALS levels (% change from baseline) (Table 12, cynomolgus monkeys, SS1 30 mg/kg IV single dose, 48 h post-injection): −35.1 +/− 1.9% | serum ALS levels (% change from baseline) (Table 12, cynomolgus monkeys, SS1 30 mg/kg IV single dose, 72 h post-injection): −34.9 +/− 10.5% | serum ALS levels (% change from baseline) (Table 12, cynomolgus monkeys, SS1 30 mg/kg IV single dose, 96 h post-injection): −48.8 +/− 8.0% | serum ALS levels (% change from baseline) (Table 12, cynomolgus monkeys, SS1 30 mg/kg IV single dose, 120 h post-injection): −41.2 +/− 13.9% | serum ALS levels (% change from baseline) (Table 12, cynomolgus monkeys, SS1 30 mg/kg IV single dose, 144 h post-injection): −50.0 +/− 4.4% | serum ALS levels (% change from baseline) (Table 12, cynomolgus monkeys, SS1 30 mg/kg IV single dose, 192 h post-injection): −50.2 +/− 2.0% | serum ALS levels (% change from baseline) (Table 12, cynomolgus monkeys, SS1 30 mg/kg IV single dose, 312 h post-injection): −47.1 +/− 2.7% | serum ALS levels (% change from baseline) (Table 12, cynomolgus monkeys, SS1 30 mg/kg IV single dose, 336 h post-injection): −50.1 +/− 4.4% | serum ALS levels (% change from baseline) (Table 14, cynomolgus monkeys, SS1 3 mg/kg IV single dose, 24 hour post-injection): −4.5 +/− 4.6% | serum ALS levels (% change from baseline) (Table 14, cynomolgus monkeys, SS1 3 mg/kg IV single dose, 72 hour post-injection): −31.1 +/− 10.1% | serum ALS levels (% change from baseline) (Table 14, cynomolgus monkeys, SS1 3 mg/kg IV single dose, 120 hour post-injection): −37.5 +/− 9.4% | serum ALS levels (% change from baseline) (Table 14, cynomolgus monkeys, SS1 3 mg/kg IV single dose, 168 hour post-injection): −32.9 +/− 4.0% | serum ALS levels (% change from baseline) (Table 14, cynomolgus monkeys, SS1 3 mg/kg IV single dose, 264 hour post-injection): −9.3 +/− 2.5% | serum ALS levels (% change from baseline) (Table 14, cynomolgus monkeys, SS1 3 mg/kg IV single dose, 312 hour post-injection): −4.9 +/− 3.0% | serum ALS levels (% change from baseline) (Table 14, cynomolgus monkeys, SS1 3 mg/kg IV single dose, 360 hour post-injection): −9.7 +/− 9.6% | serum ALS levels (% change from baseline) (Table 14, cynomolgus monkeys, SS1 3 mg/kg SQ single dose, 24 hour post-injection): −15.9 +/− 0.2% | serum ALS levels (% change from baseline) (Table 14, cynomolgus monkeys, SS1 3 mg/kg SQ single dose, 72 hour post-injection): −42.7 +/− 0.5% | serum ALS levels (% change from baseline) (Table 14, cynomolgus monkeys, SS1 3 mg/kg SQ single dose, 120 hour post-injection): −41.1 +/− 7.1% | serum ALS levels (% change from baseline) (Table 14, cynomolgus monkeys, SS1 3 mg/kg SQ single dose, 168 hour post-injection): −33.7 +/− 6.5% | serum ALS levels (% change from baseline) (Table 14, cynomolgus monkeys, SS1 3 mg/kg SQ single dose, 264 hour post-injection): −16.5 +/− 13.2% | serum ALS levels (% change from baseline) (Table 14, cynomolgus monkeys, SS1 3 mg/kg SQ single dose, 312 hour post-injection): −5.0 +/− 13.6% | serum ALS levels (% change from baseline) (Table 14, cynomolgus monkeys, SS1 3 mg/kg SQ single dose, 360 hour post-injection): −10.0 +/− 10.2% | serum ALS levels decreased to about (cynomolgus monkeys, SS1 3 mg/kg IV single dose): about 51% | serum ALS levels decreased to about (cynomolgus monkeys, SS1 10 mg/kg IV single dose): ~24% | serum ALS levels decreased to about (cynomolgus monkeys, SS1 30 mg/kg IV single dose): ~49% | time by which serum ALS levels returned to baseline levels (cynomolgus monkeys, single dose 3 mg/kg SS1 SQ or IV): ≤ 312 h | serum ALS decrease below control (cynomolgus monkeys, single dose 3 mg/kg SS1 intravenous (IV)): about 31% | serum ALS decrease below control (cynomolgus monkeys, single dose 3 mg/kg SS1 subcutaneous (SQ)): about 43% | effect on serum ALS levels in cynomolgus monkey (single IV dose 3, 10 or 30 mg/kg): reduces serum ALS levels
